Experimental data taken from article doi:10.1101/787119 (bioRxiv, 2019).

Target: the molecule itself
Experiment: SEC-MALS

B1: Full-length human dehydrodolichyl diphosphate synthase (DHDDS) (enzyme, UniProt Q86SQ9 1-333, looked up)
chain: MSWIKEGELSLWERFCANIIKAGPMPKHIAFIMDGNRRYAKKCQVERQEGHSQGFNKLAETLRWCLNLGILEVTVYAFSIENFKRSKSEVDGLMDLARQKFSRLMEEKEKLQKHGVCIRVLGDLHLLPLDLQELIAQAVQATKNYNKCFLNVCFAYTSRHEISNAVREMAWGVEQGLLDPSDISESLLDKCLYTNRSPHPDILIRTSGEVRLSDFLLWQTSHSCLVFQPVLWPEYTFWNLFEAILQFQMNHSVLQKARDMYAEERKRQQLERDQATVTEQLLREGLQASGDAQLRRTRLHKLSARREERVQGFLQALELKRADWLARLGTASA
With B1 the “stoichiometry N” value was 2.
